B1: Chemotaxis protein CheA (Escherichia coli (strain K12)), P07363 (parent)
chain: MSMDISDFYQTFFDEADELLADMEQHLLVLQPEAPDAEQLNAIFRAAHSIKGGAGTFGFSVLQETTHLMENLLDEARRGEMQLNTDIINLFLETKDIMQEQLDAYKQSQEPDAASFDYICQALRQLALEAKGETPSAVTRLSVVAKSEPQDEQSRSQSPRRIILSRLKAGEVDLLEEELGHLTTLTDVVKGADSLSAILPGDIAEDDITAVLCFVIEADQITFETVEVSPKISTPPVLKLAAEQAPTGRVEREKTTRSNESTSIRVAVEKVDQLINLVGELVITQSMLAQRSSELDPVNHGDLITSMGQLQRNARDLQESVMSIRMMPMEYVFSRYPRLVRDLAGKLGKQVELTLVGSSTELDKSLIERIIDPLTHLVRNSLDHGIELPEKRLAAGKNSVGNLILSAEHQGGNICIEVTDDGAGLNRERILAKAASQGLTVSENMSDDEVAMLIFAPGFSTAEQVTDVSGRGVGMDVVKRNIQKMGGHVEIQSKQGTGTTIRILLPLTLAILDGMSVRVADEVFILPLNAVMESLQPREADLHPLAGGERVLEVRGEYLPIVELWKVFNVAGAKTEATQGIVVILQSGGRRYALLVDQLIGQHQVVVKNLESNYRKVPGISAATILGDGSVALIVDVSALQAINREQRMANTAA
partner: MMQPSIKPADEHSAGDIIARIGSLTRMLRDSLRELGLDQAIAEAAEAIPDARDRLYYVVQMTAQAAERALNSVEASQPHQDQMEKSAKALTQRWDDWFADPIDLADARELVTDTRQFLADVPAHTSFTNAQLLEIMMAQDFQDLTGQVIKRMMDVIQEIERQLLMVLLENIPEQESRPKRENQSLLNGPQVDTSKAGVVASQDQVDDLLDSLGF

Variants of: B1
Conditions: with chez_ecoli cheZ

Row | effect of a mutation on the interaction | Variant
1 | decreasing interaction strength | R124C
2 | decreasing interaction strength | L123C
3 | decreasing interaction strength | L126C
4 | decreasing interaction strength | Y118C
